From patent publication US20200131474A1, “METHODS AND COMPOSITIONS FOR OCULAR CELL THERAPY” (Novartis AG, priority 2018, published 2020)

Assays:
[1] = tested on: potential off-target sites; assay: Off-target activity detection in limbal stem cells by targeted PCR and NGS; format: cell-based, human; details: edited LSCs vs non-edited PBMCs; positive sites of sequenced loci
Protocol: Potential CRISPR/Cas9-mediated cutting sites identified above were evaluated using targeted PCR and NGS in genome-edited expanded LSCs.
Selected sgRNAs (SEQ ID NO: 120, 162, 166, 167, 171, and 175) were further analyzed by amplicon sequencing in edited and non-edited cells. Primers flanking the potential off-target sites for each guide were used to detect indels by NGS analysis in edited LSCs and non-edited peripheral blood mononuclear cells. Sites that had either (1) a difference in mean indel percentage between edited and unedited cells greater than 0.5%; or (2) a p value less than 0.05 between edited and unedited indel were further analyzed. NGS sequence reads for such sites were assessed for characteristic indel patterns near the putative Cas9 cut site.

[2] = tested on: beta-2-microglobulin gene; assay: CRISPR/Cas9-mediated deletion of B2M in LSCs by nucleofection, FACS analysis; format: cell-based, human; details: Cas9 protein (SEQ ID NO: 107):sgRNA 1:10 nucleofection, LSCs passage 0, FACS
Protocol: The sgRNA ID SEQ NO 120 was tested for the ability to reduce or eliminate expression of B2M in LSCs using a nucleofection approach as follows.
LSCs at passage 0 were trypsinized with TryLE™Express Enzym (ThermoFisher, Cat #12605010) for 15 min in 5% CO2 at 37° C. After scraping the cells, the reaction was stopped by using cell culture medium containing 10% Serum and transferred to a falcon tube. After counting cells using Vi-cell 200′000 cells were prepared per reaction by transferring 200′000 cells in single tubes and centrifuged at 1000 rpm for 5 min.
The supernatant was aspirated using manually pipetting to avoid cell loss and the cells were resuspended in the Stem cell nucleofector solution II (Lonza, Cat #VPH-5022). Resuspend cells in nucleofector solution immediately before adding the Cas9 protein:sgRNA mixture. A stock of 100 μM (3.23 μg/μl) was prepared resuspending 5.1 nanomoles of single-guideRNA (sgRNA) in 51 μl 10 mM Tris buffer pH7.4. […]
In order to prevent cells sticking to the wall, collection tubes were filled with FACS buffer for 30 minutes before the sort and aspirated before adding the collection medium. […] FACS data were analyzed using BD FACSDiva software and FlowJo software.

[3] = tested on: genomic DNA purified from male human peripheral blood mononuclear cells; assay: Biochemical method for potential off-target genomic sites cleaved by Cas9 and B2M guides; details: guide concentration of 64 nM
From the text: A biochemical method (See, e.g., Cameron et al., Nature Methods. 6, 600-606; 2017) was used to determine potential off-target genomic sites cleaved by Cas9 and selected B2M guides.

CD8+ T-cells = assay: LSC/T-cell reaction assay (gene edited LSCs co-cultured with CD8+ T-cells); format: cell-based, human; details: B2M/HLA-Class I negative edited LSCs co-cultured 10 days with CD8+ T-cells from 4 donors
Protocol: An LSC/T-cell assay was performed in flat bottom 96well synthemax coated plates in duplicates and incubated in 5% CO2 at 37° C. for 10 days. RPMI-1640 supplemented with HEPES (100 μM), non-essential aas (10×), sodium pyruvate (10 mM), 2-Mercapthoethanol (10×), 10% FBS and 1% Penicillin-Streptomycin (Gibco by Life Technologies) was used as medium for co-culture. Alternatively, RPMI-1640 supplemented with HEPES (10 mM), non-essential aas (1×), sodium pyruvate (1 mM), 2-Mercapthoethanol (1×), 10% FBS and 1% Penicillin-Streptomycin (Gibco by Life Technologies) was used as medium for co-culture.
One day before co-culture, LSCs (stimulator cells) were passed and cultured to a confluency of around 70% (30′000-50′000 cells) and cultured with LSC medium including compound. On day two, peripheral blood mononuclear cells (PBMC) were separated using EDTA blood with the Ficoll-Paque method (GE Healthcare Life Sciences, cat #17-1440-03). […]
After 10 days, CD8+ cells were transferred to a U-bottomed 96-well plate and washed 3 times using autoMAC rinsing solution (Miltenyi Biotec, Cat #130-091-222) including MACS BSA stock solution (Miltenyi Biotec, Cat #130-091-376). Cells were measured on a BD LSRFortessa X-20. FACS data were analyzed using BD FACSDiva software and FlowJo software.

B1: 1-CR004366: gRNA targeting B2M (Dharmacon); targeting domain GAGUAGCGCGAGCACAGCUA (SEQ ID NO: 108); sgRNA SEQ ID NO: 120 (nucleic acid)
guide: GAGUAGCGCGAGCACAGCUAGUUUUAGAGCUAGAAAUAGCAAGUUAAAAUAAGGCUAGUCCGUUAUCAACUUGAAAAAGUGGCACCGAGUCGGUGCUUUU
modifications: listed as RNA, chemistry not given here
In the case of B1, the “Number of sites positive for off-target activity in LSCs” value [1] is reported as “zero”, the “LSCs with deletion of B2M and elimination of HLA A, B and C (cells not expressing B2M)” value [2] is reported as “about 70%” and the “off-target Site_Count” value [3] is reported as 69. For the same molecule, the T-cell immunoresponse (CD8+ T-cells) was “almost completely eliminated”.
